For data set [1], the target named is T1, HMGB1 (Mus musculus, UniProt P63158 SEQ:1-215). The data set can be described thus: pulldown; biotin-CpG-B(S) 0.2 uM pulled down HMGB1; also completely inhibited B-DNA binding. The conditions noted are these: tags: GST-tagged, tag removed with thrombin (pGEX4T3). As to the method:
(§1) In more detail, a final concentration of 0, 0.1, 0.5, 2.5, 12.5, or 62.5 μg/mL of CpG-B(S) as a competitor was added to 2 μg of a recombinant HMGB1 protein and a final concentration of 2.5 μg/mL of biotin-labeled B-DNA, and they were incubated (room temperature, 30 minutes). The biotin-labeled B-DNA was pulled down with streptavidin-bound magnetic beads, and HMGB1 in the coprecipitated protein was detected by Western blotting using an anti-HMGB1 antibody. In addition, a final concentration of 0, 1, 2, 4, 8, 16, or 32 μM of a competitor: CpG-B(S) not labeled with biotin, CpG-M(S), ODN(PS) composed of only a phosphorothioate backbone and not having any base, or ODN(CpG-M) having the same sequence as that of CpG-M(S) and a phosphodiester backbone, was added to 2 μg of the recombinant HMGB1 protein and a final concentration of 0.2 μM of biotin-labeled CpG-B(S). The biotin-labeled CpG-B was pulled down with streptavidin-bound magnetic beads, and HMGB1 in the coprecipitated protein was detected by Western blotting using an anti-HMGB1 antibody.

For data set [2], the target named is T1, HMGB1. The data set can be described thus: pulldown; CpG-B ODN competing biotin-B-DNA; recombinant HMGB1 or 2 used, protein of this panel not specified. The conditions noted are these: tags: GST-tagged, tag removed with thrombin (pGEX4T3). On the procedure: (§2) In vitro pull-down assay was carried out as follows. At first, a recombinant of HMGB1, 2, or 3 was treated in the presence or absence of a competitor at room temperature for 30 minutes. The supernatant was mixed with a biotin-labeled B-DNA at 4° C. for 30 minutes, then streptavidin-bound magnetic beads (Invitrogen Corporation) were added thereto, and the mixture was incubated in a binding buffer (50 mM Tris-Cl, pH 7.5, 150 mM NaCl, 1 mM EDTA, 1% NP-40, 100 μg/mL leupeptin, 1 mM PMSF, 1 mM Na₃VO₄). Subsequently, the mixture was sufficiently washed with a binding buffer, was separated by SDS-PAGE, and then was immunoblotted using an anti-HMGB1, 2, or 3 antibody.
Binding of HMGB to DNA, RNA and base-free phosphorothioate deoxyribose homopolymer (PS) was investigated. In vitro pull-down assay using recombinant HMGB1 or 2 and biotin-bound B-DNA was performed in the presence of 1, 3, 10, 30 and 100 μg/mL of unlabeled nucleic acid (B-DNA, poly(I:C), poly(U), bovine thymus DNA, or microbial DNA), R837 (1, 3, 10, 30 and 100 μg/mL) (upper and middle panels), base-free natural deoxyribose homopolymer (PD: 0.01, 0.1, 0.3, 1 and 3 μg/mL, lower panel), or base-free phosphorothioate deoxyribose homopolymer (PS: 0.01, 0.1, 0.3, 1 and 3 μg/mL, lower panel). In the lower panel, unlabeled B-DNA or CpG-B ODN having stepwise increasing concentrations (0.1, 0.3, 1 and 3 μg/mL) was also used. […]

Data set [3] concerns the target T1, HMGB1. Briefly: competition; competes biotin-CpG-B(S) equally to unlabeled CpG-B(S); higher competitivity than PS. The settings on record: tags: GST-tagged, tag removed with thrombin (pGEX4T3). As to the method: as §1
Data set [4] has as its target T2, CFP-tagged RIG-I (CFP-RIG-I) (mouse, UniProt Q6Q899 1-926).
T2 construct: Expressed in HeLa cells from the pCAGGS-CFP vector; not shown: CFP tag from the pCAGGS-CFP vector
T2 sequence (looked up): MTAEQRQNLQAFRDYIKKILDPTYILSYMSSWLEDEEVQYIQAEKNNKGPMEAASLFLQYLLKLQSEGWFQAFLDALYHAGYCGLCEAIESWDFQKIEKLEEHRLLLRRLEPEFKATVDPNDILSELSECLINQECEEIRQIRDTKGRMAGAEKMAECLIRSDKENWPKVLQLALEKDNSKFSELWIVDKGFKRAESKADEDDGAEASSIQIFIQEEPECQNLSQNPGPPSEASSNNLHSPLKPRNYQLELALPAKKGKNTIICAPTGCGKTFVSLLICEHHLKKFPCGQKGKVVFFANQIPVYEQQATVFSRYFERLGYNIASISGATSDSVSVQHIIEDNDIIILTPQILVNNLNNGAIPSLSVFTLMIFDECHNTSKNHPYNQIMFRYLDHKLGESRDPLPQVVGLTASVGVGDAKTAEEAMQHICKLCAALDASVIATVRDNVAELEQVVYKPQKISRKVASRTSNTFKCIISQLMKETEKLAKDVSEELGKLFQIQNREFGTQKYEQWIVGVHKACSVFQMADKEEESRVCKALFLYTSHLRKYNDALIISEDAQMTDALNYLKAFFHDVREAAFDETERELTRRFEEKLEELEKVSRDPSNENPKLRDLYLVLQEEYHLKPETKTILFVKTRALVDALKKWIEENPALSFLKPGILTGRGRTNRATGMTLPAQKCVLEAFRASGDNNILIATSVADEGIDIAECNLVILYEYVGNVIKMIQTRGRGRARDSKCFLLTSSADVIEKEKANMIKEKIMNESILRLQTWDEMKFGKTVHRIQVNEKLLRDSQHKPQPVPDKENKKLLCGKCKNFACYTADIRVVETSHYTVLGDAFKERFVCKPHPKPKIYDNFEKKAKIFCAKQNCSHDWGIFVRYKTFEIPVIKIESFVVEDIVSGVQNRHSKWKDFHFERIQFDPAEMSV
The data set can be described thus: confocal fluorescence microscopy of HeLa cells cotransfected with CFP-RIG-I and YFP-HMGB1 and stimulated with poly(I:C); the filing's interpretation of co-localisation. As to the method: Intracellular localization of HMGB1 and RIG-I was investigated. Expression vectors of CFP-tagged RIG-I (CFP-RIG-I) and YFP-tagged HMGB1 (YFP-HMGB1) were introduced, together with RFP-tagged Rab5 (RFP-Rab5) or without RFP-Rab5, into HeLa cells. At 16 hours after the gene transfer, the cells were stimulated with poly(I:C) for 2 hours, and fluorescence microscopic observation was performed using a laser scanning confocal microscope.

For data set [5], the target named is T1, HMGB1. Briefly: competition; competes biotin-B-DNA; higher competitivity than PS. The conditions noted are these: tags: GST-tagged, tag removed with thrombin (pGEX4T3). As to the method:
as §2
As in Example 13, in vitro pull-down assay using recombinant HMGB1 and biotin-bound B-DNA was performed for 0.1, 0.5, 2.5, 12.5 and 62.5 μg/mL of CpG-B(S), CpG-Rev(S), CpG-M(S) and PS, as competitors.

As for TCCATGACGTTCCTGATGCT (ssDNA, PS all linkages) [CpG-B(S)], the binding result in data set [1] and in data set [2] was “binds” each time.
On to TCCATGAGGTTCCTGATGCT (ssDNA, PS all linkages) [CpG-M(S)], for which the binding result in data set [3] is listed as “binds”.

B1: YFP-tagged HMGB1 (YFP-HMGB1) (other, mouse, UniProt P63158 1-215, looked up)
chain: MGKGDPKKPRGKMSSYAFFVQTCREEHKKKHPDASVNFSEFSKKCSERWKTMSAKEKGKFEDMAKADKARYEREMKTYIPPKGETKKKFKDPNAPKRPPSAFFLFCSEYRPKIKGEHPGLSIGDVAKKLGEMWNNTAADDKQPYEKKAAKLKEKYEKDIAAYRAKGKPDAAKKGVVKAEKSKKKKEEEDDEEDEEDEEEEEEEEDEDEEEDDDDE
notes: Expressed in HeLa cells from the pCAGGS-YFP vector; not shown: YFP tag from the pCAGGS-YFP vector
In the case of B1, the binding result in data set [4] is reported as “binds”.
For the molecule TCCATGAGCTTCCTGATGCT (ssDNA, PS all linkages) [CpG-Rev(S)], the binding result in data set [5] was “binds”.

(Values after patent US20130183348A1, “Inhibitor of HMGB Protein-Mediated Immune Response Activation, and Screening Method” (JAPAN SCIENCE AND TECHNOLOGY AGENCY, published 2013).)
